This data set has as its target T1, ZC3H11-119 (Trypanosoma brucei, UniProt Q57W26 1-119).
T1 sequence: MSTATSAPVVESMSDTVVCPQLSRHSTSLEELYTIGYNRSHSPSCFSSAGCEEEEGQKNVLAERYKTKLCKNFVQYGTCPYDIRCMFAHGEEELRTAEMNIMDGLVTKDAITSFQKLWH
Briefly: EMSA; limiting probe titration; no binding; 20 mM Tris-HCl pH 8.0, 50 mM NaCl, 10 uM ZnCl2, 0.01% IGEPAL CA-630, 0.1 mg/ml tRNA, 10 ug/ml heparin (legends: 5 ug/ml or 10 mg/ml), room temperature 30 min; 100 pmol protein, 1 pmol RNA. The following applies: protein: recombinant; tags: His10 (called His-tagged).

B1: U23 (ssRNA)
RNA: UUUUUUUUUUUUUUUUUUUUUUU
As for B1, the binding result is recorded as “no binding”.
